B1: RHOBTB1 (parent)
chain: TFGDHHKDRRFAYGRSDVVVLCFS

Variants of: B1
Assay: protein stability index of a GFP-peptide fusion (GPS, HEK-293T) (PSI 1-6); higher = more stable
Settings: c terminus: a fixed tail appended
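Further: lentivirally expressed fusions sorted by FACS into six bins by GFP to DsRed ratio, PSI derived from sequencing read proportions per bin multiplied by bin number.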

Variant	protein stability index
TFGDHHKWRRFAYGRSDVVVLCFS [D8W]	3.29
TFGDHHKYRRFAYGRSDVVVLCFS [D8Y]	4.4
TFGDHHKDDRFAYGRSDVVVLCFS [R9D]	3.4
TFGDHHKDERFAYGRSDVVVLCFS [R9E]	2.75
TFGDHHKDGRFAYGRSDVVVLCFS [R9G]	2.82
TFGDHHKDHRFAYGRSDVVVLCFS [R9H]	3.56
TFGDHHKDIRFAYGRSDVVVLCFS [R9I]	3.77
TFGDHHKDKRFAYGRSDVVVLCFS [R9K]	1.97
TFGDHHKDLRFAYGRSDVVVLCFS [R9L]	2.66
TFGDHHKDNRFAYGRSDVVVLCFS [R9N]	2.58
TFGDHHKDPRFAYGRSDVVVLCFS [R9P]	3
TFGDHHKDQRFAYGRSDVVVLCFS [R9Q]	3.83
TFGDHHKDSRFAYGRSDVVVLCFS [R9S]	1.86
TFGDHHKDTRFAYGRSDVVVLCFS [R9T]	1.42
TFGDHHKDVRFAYGRSDVVVLCFS [R9V]	3.55
TFGDHHKDRAFAYGRSDVVVLCFS [R10A]	2.32
TFGDHHKDRCFAYGRSDVVVLCFS [R10C]	2.7
TFGDHHKDRDFAYGRSDVVVLCFS [R10D]	2.03
TFGDHHKDREFAYGRSDVVVLCFS [R10E]	1.47
TFGDHHKDRGFAYGRSDVVVLCFS [R10G]	4.76
TFGDHHKDRHFAYGRSDVVVLCFS [R10H]	2.59
TFGDHHKDRIFAYGRSDVVVLCFS [R10I]	1.96
TFGDHHKDRKFAYGRSDVVVLCFS [R10K]	2.21
TFGDHHKDRMFAYGRSDVVVLCFS [R10M]	1.76

Variant	protein stability index
TFGDHHKDRNFAYGRSDVVVLCFS [R10N]	3.35
TFGDHHKDRPFAYGRSDVVVLCFS [R10P]	3.19
TFGDHHKDRQFAYGRSDVVVLCFS [R10Q]	2.27
TFGDHHKDRSFAYGRSDVVVLCFS [R10S]	3.52
TFGDHHKDRTFAYGRSDVVVLCFS [R10T]	2.93
TFGDHHKDRVFAYGRSDVVVLCFS [R10V]	2.19
TFGDHHKDRRAAYGRSDVVVLCFS [F11A]	1.69
TFGDHHKDRRDAYGRSDVVVLCFS [F11D]	1.78
TFGDHHKDRREAYGRSDVVVLCFS [F11E]	1.49
TFGDHHKDRRHAYGRSDVVVLCFS [F11H]	2.37
TFGDHHKDRRIAYGRSDVVVLCFS [F11I]	2.38
TFGDHHKDRRKAYGRSDVVVLCFS [F11K]	1.35
TFGDHHKDRRLAYGRSDVVVLCFS [F11L]	1.98
TFGDHHKDRRNAYGRSDVVVLCFS [F11N]	2.49
TFGDHHKDRRPAYGRSDVVVLCFS [F11P]	1.89
TFGDHHKDRRSAYGRSDVVVLCFS [F11S]	1.13
TFGDHHKDRRWAYGRSDVVVLCFS [F11W]	2.28
TFGDHHKDRRYAYGRSDVVVLCFS [F11Y]	1.27
TFGDHHKDRRFCYGRSDVVVLCFS [A12C]	2.93
TFGDHHKDRRFDYGRSDVVVLCFS [A12D]	2.58
TFGDHHKDRRFEYGRSDVVVLCFS [A12E]	1.93
TFGDHHKDRRFGYGRSDVVVLCFS [A12G]	1.57
TFGDHHKDRRFHYGRSDVVVLCFS [A12H]	3.79
